Assay results: patent US20230064978A1, “CYCLIC PEPTIDE RECEPTOR LANTHIONINE SYNTHETASE C-LIKE PROTEIN (LANCL) AND USES THEREOF” (LATERAL IP PTY LTD, priority 2019, published 2023)
“Also recorded” adds a separate entry of the source. Bridges are numbered along the chain shown (N, C = ends). Where no end group is shown, it is not given here.

Assays:
human recombinant LANCL1 = molecular target: T1, human recombinant LANCL1 (Homo sapiens, UniProt O43813); test: In-gel fluorescence: photolabelling of recombinant LANCL1 with PAL probes, with or without excess competitor; assay type: binding
T1 construct: purchased ABCAM ab181923; host or cells: E. coli
T1 sequence (O43813 with tags, fused parts or gaps): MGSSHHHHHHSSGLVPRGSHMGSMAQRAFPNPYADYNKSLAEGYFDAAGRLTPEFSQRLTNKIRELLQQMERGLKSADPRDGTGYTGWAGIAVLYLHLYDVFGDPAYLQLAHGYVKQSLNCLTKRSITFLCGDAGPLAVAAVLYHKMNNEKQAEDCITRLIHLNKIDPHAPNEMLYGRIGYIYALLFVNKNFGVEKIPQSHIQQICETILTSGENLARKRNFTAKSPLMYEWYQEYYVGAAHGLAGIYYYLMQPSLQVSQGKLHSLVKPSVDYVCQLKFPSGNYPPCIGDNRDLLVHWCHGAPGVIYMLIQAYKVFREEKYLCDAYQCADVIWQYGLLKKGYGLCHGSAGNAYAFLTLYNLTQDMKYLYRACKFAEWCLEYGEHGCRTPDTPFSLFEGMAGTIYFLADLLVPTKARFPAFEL
Method: The in-gel fluorescence protocol can be briefly described as follows:
1. LANCL1 Labelling, Assay on 96 Well Plate, Volume of the Reaction 40 μl in PBS
3 μg/well of human recombinant LANCL1 (ABCAM catalog no. ab181923, 1 mg/ml; expressed in E. Coli and incorporating an N-terminal 23 amino acid hexaHis tag; UniProtKB/Swiss-Prot Accession no: O43813);
• Vehicle DMSO • ±LAT8881 (a cyclic peptide fragment of human growth hormone; SEQ ID NO:1) • SEQ ID NO:1) as competitor @ 25, 50, 100 or 200 μM, pre-incubation 10 min, 4 μl of a stock solution 10-fold concentrated • ±LAT9991-PAL, LAT7771-PAL or LAT9993-PAL probes @ 1 μM, incubation 30 min at room temperature on a plate agitator (protected from light), 4 μl of a stock solution @10 μM
• Irradiation @ 365 nm 20 min (4° C., on a support containing ice) Transfer 40 μl in a clean Eppendorf tube
• Reduction: DTT 10 mM, 30 min @ 56° C. • Alkylation: Iodoacetamide 30 mM, 45 min @ RT Click-iT AzideTamra of 60 μL samples
(§1) • Acetone Precipitation −20° C. ON • Dry pellet resuspended in 30 μL 1% SDS in 50 mM Tris-HCl pH 7.5 • Photolabeled LANCL1 was tagged with tetramethylrhodamine (TAMRA) azide @100 μM TAMRA azide by copper click chemistry using the Click-iT Protein Reaction Buffer Kit (ThermoFisher Scientific) during 30 minutes • Precipitation using the chloroform-methanol method, pellet was air-dried for 10 min at room temperature, resuspended in 30 μL SDS loading buffer (Bio Rad's XT Sample Buffer containing 2.5% v/v 2-mercaptoethanol) and heated (60° C., 30 min)
(§2) • SDS-PAGE (4-15% Criterion™ TGX Stain-Free™ Protein Gel, Bio Rad) • Analyzed by in-gel fluorescence scanning using a ChemiDoc™ MP Imaging System (Bio Rad) with a green LED light as an excitation source and a BP600/20 nm emission filter

human recombinant LANCL3 = molecular target: T2, human recombinant LANCL3 (Homo sapiens, UniProt Q6ZV70); test: In-gel fluorescence: photolabelling of recombinant LANCL3 with PAL probe, with or without excess LAT8881; assay type: binding
T2 construct: human recombinant LANCL3 (amino acid residues 1-420); 10xHis (N); Myc (C); purchased ABCAM ab163277; host or cells: E. coli
T2 sequence (Q6ZV70 whole entry, the tested form may be a part): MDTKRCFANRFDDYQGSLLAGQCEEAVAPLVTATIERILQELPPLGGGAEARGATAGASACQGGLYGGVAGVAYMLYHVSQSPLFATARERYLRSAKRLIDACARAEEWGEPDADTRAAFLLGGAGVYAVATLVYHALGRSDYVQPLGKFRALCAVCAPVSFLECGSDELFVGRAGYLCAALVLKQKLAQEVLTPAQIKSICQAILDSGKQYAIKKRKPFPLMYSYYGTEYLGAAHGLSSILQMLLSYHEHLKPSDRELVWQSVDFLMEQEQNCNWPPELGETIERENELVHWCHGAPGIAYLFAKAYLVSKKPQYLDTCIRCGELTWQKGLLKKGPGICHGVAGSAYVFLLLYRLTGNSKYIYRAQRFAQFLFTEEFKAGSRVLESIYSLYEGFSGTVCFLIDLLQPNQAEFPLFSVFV
Method: An in-gel fluorescence protocol was followed to determine whether the cyclic peptides bound to LANCL2 and LANCL3. Briefly:
1. LANCL2 and LANCL3 Labelling, Assay on 96 Well Plate, Volume of the Reaction 40 μl in PBS
• […] of human recombinant LANCL3 (amino acid residues 1-420; ABCAM catalog no. ab163277, ˜0.07 mg/ml; expressed in E. Coli and incorporating an N-terminal 10×His tag and a C-terminal Mvc tag; UniProt Accession no: Q6ZV70);
• Vehicle DMSO • ±LAT8881 (a cyclic peptide fragment of human growth hormone; SEQ ID NO:1) • SEQ ID NO:1 as competitor @ 50, 100 or 200 μM, pre-incubation 10 min, […], incubation 30 min at room temperature on a plate agitator (protected from light), 4 μl of a stock solution @10 μM
• Irradiation @ 365 nm 20 min (4° C., on a support containing ice) • Transfer 40 μl in a clean Eppendorf tube
• Reduction: DTT 10 mM, 30 min @ 56° C. • Alkylation: Iodoacétamide 30 mM, 45 min @ RT Click-iT AzideTamra of 60 μL samples
as §1, with “for” for “during”, “Rad” for “Rad's”
as §2

DRG neurons = test: Confocal microscopy of PAL probe binding in DRG cell cultures, spinal nerve ligation model; assay type: cell-based, Sprague Dawley rats
Text: LAT9991-PAL was used in conjunction with confocal microscopy to visualise the location of potential target(s), noting that analgesic agents can have activity at several sites, either on central or peripheral neurons, or on glial or inflammatory cells that are in proximity to neurons. To identify the cell types to which LAT9991-PAL binds, 3-day cell cultures of DRG from neuropathic or control sites were taken from animals with neuropathy due to spinal nerve ligation. Briefly, L5 and L6 spinal nerves of male Sprague Dawley rats were ligated to create a robust and long-lasting mechanical allodynia of the injured hind paw. Presence of neuropathic pain was confirmed 2 weeks post-spinal nerve ligation surgeries (day 14) using von Frey (VF) filaments (up-and-down method) applied on ipsilateral (injured) and contralateral (non-injured) paw). Live DRG cells were dissected out as described previously and incubated with LAT9991-PAL for 1 hour prior to UV irradiation to fix the binding in situ. […] As a specificity control, the binding of LAT9991-PAL to the neuropathic DRG was blocked in the presence of an excess amount of unlabeled LAT9991 peptide.

LANCL1 = LANCL1 (Rattus norvegicus, UniProt Q9QX69); test: Mass spectrometry of excised gel bands from PAL cross-linked homogenates (PALMS); assay type: binding; set-up: from tissue; host or cells: nerve tissue homogenate of neuropathic animals
Sequence of LANCL1 (Q9QX69 whole entry): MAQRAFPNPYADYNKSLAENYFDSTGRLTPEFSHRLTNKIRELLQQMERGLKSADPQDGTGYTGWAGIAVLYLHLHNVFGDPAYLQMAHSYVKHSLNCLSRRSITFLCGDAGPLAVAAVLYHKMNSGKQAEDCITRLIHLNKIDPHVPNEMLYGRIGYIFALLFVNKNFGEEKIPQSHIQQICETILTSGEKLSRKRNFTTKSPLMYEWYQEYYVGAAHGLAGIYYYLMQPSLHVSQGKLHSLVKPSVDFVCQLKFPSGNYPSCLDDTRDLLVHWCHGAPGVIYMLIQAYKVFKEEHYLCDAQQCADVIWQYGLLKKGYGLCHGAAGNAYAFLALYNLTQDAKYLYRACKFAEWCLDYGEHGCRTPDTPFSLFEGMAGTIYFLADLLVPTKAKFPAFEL
Text: Having identified at least three molecular weight bands as representative of the potential targets, the 12-15 kD, 37 kD and 50 kD regions of the gel were excised, subjected to limited proteolysis and analysed by mass spectrometry to identify peptides from proteins that were differentially enriched. The detection of at least two different peptides from a protein that is enriched in the LAT9991-PAL cross-linked samples when compared to (i) the un-crosslinked samples and (ii) LAT9991-PAL in the presence of excess LAT8881 (SEQ ID NO:1; YLRIVQCRSVEGSCGF) was considered a positive signature. LAT9991-PAL, LAT9993-PAL and LAT7771-PAL were also used. LAT9993 (SEQ ID NO:41) has the amino acid sequence SCRSRPVESSC.

Binding of PAL probe to recombinant LANCL1 (human recombinant LANCL1; in-gel fluorescence after UV (365 nm) cross-linking) | Binding of PAL probe to recombinant LANCL3 (human recombinant LANCL3; in-gel fluorescence after UV cross-linking) | Substance | Subcellular location of the target stained by PAL probe (DRG neurons; high-powered imaging, neurons from neuropathic animals (FIG. 2)) | Localisation of PAL probe in DRG cell cultures (DRG neurons; neuropathic vs unaffected DRG, 1 hour incubation before UV irradiation) | LANCL1 bound / enriched in PAL probe cross-linked samples (mass spectrometry) (LANCL1; vs un-crosslinked samples (CU) and samples with excess LAT8881 (COMP), 37 kDa band) | Inhibition of LAT7771-PAL binding to recombinant LANCL1 by excess competitor (human recombinant LANCL1; probe LAT7771-PAL, excess LAT8881) | Inhibition of LAT9991-PAL binding to recombinant LANCL1 by excess competitor (human recombinant LANCL1; probe LAT9991-PAL, excess unlabelled competitor) | Inhibition of LAT9993S-PAL binding to recombinant LANCL1 by excess competitor (human recombinant LANCL1; probe LAT9993S-PAL, excess LAT8881) | Inhibition of LAT9991-PAL binding to LANCL3 by excess competitor (human recombinant LANCL3; probe LAT9991-PAL, excess LAT8881) | Inhibition of LAT9993-PAL binding to recombinant LANCL3 by excess competitor (human recombinant LANCL3; probe LAT9993-PAL (as in FIG. 11 legend), excess LAT8881) | Inhibition of PAL probe binding to LANCL1 from tissue homogenates by excess competitor (LANCL1; probes LAT9991-PAL, LAT9993-PAL, LAT7771-PAL, excess LAT8881)
bound to recombinant LANCL1 | binds | LAT9991-PAL: cyclic peptide of SEQ ID NO:12 (LAT9991) conjugated to the PAL (Photo-Activated Labelling) grouping (CRSVEGSCG; disulfide 1-8 (inferred); also: PAL group on N-terminal Cys-Arg part) | expressed just inside the neuronal cell membrane, and with punctate staining in the cytoplasm | localised only in neurons from neuropathic DRG and not from unaffected DRG | met the arbitrary statistical criteria for a “hit”; also recorded: enriched by several fold-changes; also recorded: bound to LANCL1 |  |  |  |  |  | 
 |  | YLRIVQCRSVEGSCGF [LAT8881, a cyclic peptide fragment of human growth hormone] |  |  |  | inhibited | inhibited | inhibited | inhibited | inhibited | inhibited
